What is called Kd is the concentration at which binding is half-saturated. Higher therefore signals a looser complex.

No end group written: not given here.

This experiment deals with PD-L1 (UniProt Q9NZQ7). The experiment in a line: SPR. Background: SPR reads the build-up and loss of mass on a sensor chip optically.
Sequence of PD-L1 (Q9NZQ7 19-238): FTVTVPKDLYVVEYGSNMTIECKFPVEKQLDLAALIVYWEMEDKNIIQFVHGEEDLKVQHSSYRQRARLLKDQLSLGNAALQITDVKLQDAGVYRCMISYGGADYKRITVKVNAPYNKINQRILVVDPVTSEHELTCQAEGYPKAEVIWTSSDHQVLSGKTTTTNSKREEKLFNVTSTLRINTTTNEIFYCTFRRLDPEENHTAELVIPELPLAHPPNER

NTGYFYGDQ (also: co-assembled nanofiber with IR-CF3) [PSP (PSP@IR-CF3 nanofiber)]: the Kd came out at 27.8 nM.

The values are drawn from publication PMC13696528 (2026).
